Measurements taken from patent US20030036181A1.

Molecular target: macrophage mannose receptor on J774E murine monocyte/macrophage cells (murine) (UniProt Q61830)
Assay: cell-based or functional assay

Cerezyme (from UniProt P04062 40-536) (enzyme)
Vmax for uptake in the J774E macrophage cell line: 0.52
